Reference: US7067474B1, “Agents for treating human illnesses based on β-catenin, and the production and use thereof” (Max-Delbruck-Centrum fur Molekulare Medizin, priority 1998, dated 2006)

What was measured:
[1] = biological target: T1, human β-catenin (Leu218-Leu781) mutant His 470 to alanine, Gal-4 activation domain fusion (human, UniProt P35222 218-781); assay: yeast 2-hybrid
T1 sequence: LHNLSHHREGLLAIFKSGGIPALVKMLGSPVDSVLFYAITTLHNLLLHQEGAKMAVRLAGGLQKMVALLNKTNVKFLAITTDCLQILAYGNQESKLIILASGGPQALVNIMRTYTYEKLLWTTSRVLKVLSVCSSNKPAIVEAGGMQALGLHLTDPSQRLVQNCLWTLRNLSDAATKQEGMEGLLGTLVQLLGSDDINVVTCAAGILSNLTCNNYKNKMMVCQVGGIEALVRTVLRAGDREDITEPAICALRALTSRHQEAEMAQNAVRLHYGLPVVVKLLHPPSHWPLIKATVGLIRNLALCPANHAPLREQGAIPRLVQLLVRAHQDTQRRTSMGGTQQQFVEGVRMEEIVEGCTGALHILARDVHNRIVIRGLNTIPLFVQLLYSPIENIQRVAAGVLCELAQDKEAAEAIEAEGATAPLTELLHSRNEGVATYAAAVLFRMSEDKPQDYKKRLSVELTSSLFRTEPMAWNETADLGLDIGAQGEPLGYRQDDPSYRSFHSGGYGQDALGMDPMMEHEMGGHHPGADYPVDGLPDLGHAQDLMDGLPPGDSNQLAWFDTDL
Experimental: 4. Preparation and testing of mutants of β-catenin modulating the interaction with LEF-1, APC, conductin or E-cadherin The mutagenesis of β-catenin in the armadillo repeats 3–8 was carried out by means of the "mutagenesis kit" of the company Clontech according to the producer's record and the mutants were checked by sequencing (FIG. 5). In all mutants the original amino acid was substituted by alanine. For analyzing the interactions the cDNA of human β-catenin (armadillo repeat 3 up to the C-terminal end of the protein) coding for the amino acids Leu218–Leu7 µl or its mutants was cloned into the fusion vector for the activation domain of Gal-4 (pGAD424, Clontech). The cDNA for the binding domains of the interaction partners was cloned into the Lex-A fusion vector BTM 116. To this end, the cDNA of LEF-1 for the amino acids 1–99, conductin for the amino acids Ala342–ARG465; of human APC for the amino acids His1012–Glu1215 (APC 15 amino acid repeats) and for the amino acids Ser1259Asp 1400 (APC 20 amino acid repeats) and E-cadherin for the amino acids Gin773–Asp884 (cytoplasmatic domain) were amplified with the respective primers PCR. The interaction of the Lex-A hybrids with β-catenin and its mutants was quantified by means of the β-galactosidase reporter activity in the yeast 2-hybrid system (report: "Matchmaker". Clontech) (Tab. 2 and FIG. 6).

[2] = biological target: T2, human β-catenin (Leu218-Leu781) mutant Phe 253 to alanine, Gal-4 activation domain fusion (human, UniProt P35222 218-781); assay: yeast 2-hybrid; - means 60-100% of the wild type interaction
T2 sequence: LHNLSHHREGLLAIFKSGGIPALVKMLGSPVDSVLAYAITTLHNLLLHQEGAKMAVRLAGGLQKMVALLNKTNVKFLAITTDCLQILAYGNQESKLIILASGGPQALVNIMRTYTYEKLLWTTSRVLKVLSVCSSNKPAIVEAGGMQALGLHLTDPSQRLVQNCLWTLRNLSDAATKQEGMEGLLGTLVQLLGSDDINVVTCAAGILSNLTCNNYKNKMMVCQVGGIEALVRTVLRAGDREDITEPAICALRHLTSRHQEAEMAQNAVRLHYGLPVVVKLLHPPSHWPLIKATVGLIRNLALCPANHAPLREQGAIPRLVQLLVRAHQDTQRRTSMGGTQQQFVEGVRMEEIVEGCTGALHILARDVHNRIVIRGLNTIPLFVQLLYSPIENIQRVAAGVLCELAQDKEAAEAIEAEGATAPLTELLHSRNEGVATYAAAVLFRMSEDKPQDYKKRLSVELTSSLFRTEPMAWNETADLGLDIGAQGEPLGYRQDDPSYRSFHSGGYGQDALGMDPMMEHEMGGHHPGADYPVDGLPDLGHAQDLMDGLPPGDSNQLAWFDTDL

- binding result [1]: no binding
- binding result [2]: binds
B1: LEF-1 amino acids 1-99 fused to Lex-A (vector BTM 116) (other, UniProt P0A7C2 1-202, looked up)
chain: MKALTARQQEVFDLIRDHISQTGMPPTRAEIAQRLGFRSPNAAEEHLKALARKGVIEIVSGASRGIRLLQEEEEGLPLVGRVAAGEPLLAQQHIEGHYQVDPSLFKPNADFLLRVSGMSMKDIGIMDGDLLAVHKTQDVRNGQVVVARIDDEVTVKRLKKQGNKVELLPENSEFKPIVVDLRQQSFTIEGLAVGVIRNGDWLMPQLSGGGGGGDPELCATDEMIPFKDEGDPQKEKIFAEISHPEEEGDLADIKSSLVNESEIIPASNGHEVVRQAPSSQEPYHDKAREHPDEGKHPDGGL
notes: Order of the fusion follows the vector; also called LEF-1/TCF-4
